The source of these data is IntAct's records for PubMed 25910212.

The labels stand for the following.
B1: EF-hand domain-containing protein 1 (Homo sapiens), Q5JVL4 (parent)
chain: MVSNPVHGLPFLPGTSFKDSTKTAFHRSQTLSYRNGYAIVRRPTVGIGGDRLQFNQLSQAELDELASKAPVLTYGQPKQAPPADFIPAHVAFDKKVLKFDAYFQEDVPMSTEEQYRIRQVNIYYYLEDDSMSVIEPVVENSGILQGKLIKRQRLAKNDRGDHYHWKDLNRGINITIYGKTFRVVDCDQFTQVFLESQGIELNPPEKMALDPYTELRKQPLRKYVTPSDFDQLKQFLTFDKQVLRFYAIWDDTDSMYGECRTYIIHYYLMDDTVEIREVHERNDGRDPFPLLMNRQRVPKVLVENAKNFPQCVLEISDQEVLEWYTAKDFIVGKSLTILGRTFFIYDCDPFTRRYYKEKFGITDLPRIDVSKREPPPVKQELPPYNGFGLVEDSAQNCFALIPKAPKKDVIKMLVNDNKVLRYLAVLESPIPEDKDRRFVFSYFLATDMISIFEPPVRNSGIIGGKYLGRTKVVKPYSTVDNPVYYGPSDFFIGAVIEVFGHRFIILDTDEYVLKYMESNAAQYSPEALASIQNHVRKREAPAPEAESKQTEKDPGVQELEALIDTIQKQLKDHSCKDNIREAFQIYDKEASGYVDRDMFFKICESLNVPVDDSLVKELIRMCSHGEGKINYYNFVRAFSN

Variants of B1 are the subject of the first assay. The following applies: with ikzf3_human IKZF3, Q9UKT9.
Sequence of ikzf3_human IKZF3, Q9UKT9 (Q9UKT9 whole entry): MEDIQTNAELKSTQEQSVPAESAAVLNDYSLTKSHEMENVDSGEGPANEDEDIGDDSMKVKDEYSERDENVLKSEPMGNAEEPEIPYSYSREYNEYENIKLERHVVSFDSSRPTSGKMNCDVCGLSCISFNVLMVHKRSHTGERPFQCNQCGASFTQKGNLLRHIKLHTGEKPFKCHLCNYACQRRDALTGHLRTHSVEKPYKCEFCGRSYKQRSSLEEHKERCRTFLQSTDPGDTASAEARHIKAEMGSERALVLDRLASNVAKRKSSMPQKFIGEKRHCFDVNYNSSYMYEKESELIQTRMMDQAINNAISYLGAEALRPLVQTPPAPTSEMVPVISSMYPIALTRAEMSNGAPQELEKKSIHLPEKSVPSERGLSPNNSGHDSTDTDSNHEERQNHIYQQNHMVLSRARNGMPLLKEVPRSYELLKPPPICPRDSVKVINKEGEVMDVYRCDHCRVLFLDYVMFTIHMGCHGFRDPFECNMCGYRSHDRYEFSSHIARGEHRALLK
Regarding T508R, the “effect of a mutation on the interaction” value is reported as “with no effect”.

In a further assay the parent is B1. Conditions: with kctd4_human KCTD4, Q8WVF5.
Sequence of kctd4_human KCTD4, Q8WVF5 (Q8WVF5 whole entry): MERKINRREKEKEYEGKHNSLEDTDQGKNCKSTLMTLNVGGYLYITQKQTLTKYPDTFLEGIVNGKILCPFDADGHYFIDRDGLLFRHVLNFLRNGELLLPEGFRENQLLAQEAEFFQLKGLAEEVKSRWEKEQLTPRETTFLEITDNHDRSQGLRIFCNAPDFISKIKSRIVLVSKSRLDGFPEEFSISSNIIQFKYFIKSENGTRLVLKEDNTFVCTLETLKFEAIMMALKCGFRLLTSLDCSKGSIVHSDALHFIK
For T508R, the “effect of a mutation on the interaction” value is listed as “with no effect”.

A further assay covers variants of B1. The following applies: with rim3a_human RIMBP3, Q9UFD9.
Sequence of rim3a_human RIMBP3, Q9UFD9 (Q9UFD9 whole entry): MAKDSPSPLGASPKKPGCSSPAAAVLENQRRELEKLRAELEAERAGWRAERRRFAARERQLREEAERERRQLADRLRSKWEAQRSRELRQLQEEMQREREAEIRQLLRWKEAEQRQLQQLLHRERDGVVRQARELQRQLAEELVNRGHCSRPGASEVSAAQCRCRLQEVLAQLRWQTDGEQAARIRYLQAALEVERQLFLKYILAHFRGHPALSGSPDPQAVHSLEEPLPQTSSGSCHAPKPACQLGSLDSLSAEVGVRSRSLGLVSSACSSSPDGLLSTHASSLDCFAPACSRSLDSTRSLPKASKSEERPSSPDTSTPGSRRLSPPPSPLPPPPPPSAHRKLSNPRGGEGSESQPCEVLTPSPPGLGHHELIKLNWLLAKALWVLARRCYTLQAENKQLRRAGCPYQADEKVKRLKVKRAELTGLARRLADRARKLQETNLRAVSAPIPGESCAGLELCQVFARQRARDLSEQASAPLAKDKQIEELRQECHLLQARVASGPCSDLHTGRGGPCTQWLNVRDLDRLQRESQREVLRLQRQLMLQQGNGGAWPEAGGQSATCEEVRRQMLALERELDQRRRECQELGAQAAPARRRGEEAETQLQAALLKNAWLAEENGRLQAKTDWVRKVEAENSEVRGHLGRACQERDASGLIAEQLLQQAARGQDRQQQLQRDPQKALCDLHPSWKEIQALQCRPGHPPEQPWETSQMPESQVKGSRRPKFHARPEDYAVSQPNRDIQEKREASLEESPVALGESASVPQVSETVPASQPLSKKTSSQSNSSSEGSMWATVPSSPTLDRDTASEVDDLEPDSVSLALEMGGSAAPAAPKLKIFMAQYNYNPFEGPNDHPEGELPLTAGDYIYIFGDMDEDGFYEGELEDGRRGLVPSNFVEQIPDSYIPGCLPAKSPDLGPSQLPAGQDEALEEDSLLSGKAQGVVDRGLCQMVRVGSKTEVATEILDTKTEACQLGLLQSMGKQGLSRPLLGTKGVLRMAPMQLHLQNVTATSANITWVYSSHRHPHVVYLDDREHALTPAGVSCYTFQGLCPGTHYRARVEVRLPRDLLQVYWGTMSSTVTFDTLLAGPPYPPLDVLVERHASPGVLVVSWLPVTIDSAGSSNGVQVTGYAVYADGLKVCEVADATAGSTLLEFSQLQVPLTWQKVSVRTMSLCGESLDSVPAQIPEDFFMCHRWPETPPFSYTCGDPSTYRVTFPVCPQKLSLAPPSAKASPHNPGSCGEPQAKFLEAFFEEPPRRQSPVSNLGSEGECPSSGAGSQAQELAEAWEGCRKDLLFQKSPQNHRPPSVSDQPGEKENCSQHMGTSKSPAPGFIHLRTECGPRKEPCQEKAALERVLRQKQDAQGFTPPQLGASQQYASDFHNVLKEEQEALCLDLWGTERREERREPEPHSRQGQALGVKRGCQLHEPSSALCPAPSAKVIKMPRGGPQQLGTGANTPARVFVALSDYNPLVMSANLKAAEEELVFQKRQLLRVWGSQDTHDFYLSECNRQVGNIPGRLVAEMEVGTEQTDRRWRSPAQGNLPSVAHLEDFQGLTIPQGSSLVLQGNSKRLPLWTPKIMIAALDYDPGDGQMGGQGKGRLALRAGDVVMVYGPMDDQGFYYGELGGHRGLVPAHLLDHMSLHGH
On to T508R, for which the “effect of a mutation on the interaction” value was “with no effect”.

The variants in the next assay derive from B1. The following applies: with trip6_human TRIP6, Q15654.
Sequence of trip6_human TRIP6, Q15654 (Q15654 whole entry): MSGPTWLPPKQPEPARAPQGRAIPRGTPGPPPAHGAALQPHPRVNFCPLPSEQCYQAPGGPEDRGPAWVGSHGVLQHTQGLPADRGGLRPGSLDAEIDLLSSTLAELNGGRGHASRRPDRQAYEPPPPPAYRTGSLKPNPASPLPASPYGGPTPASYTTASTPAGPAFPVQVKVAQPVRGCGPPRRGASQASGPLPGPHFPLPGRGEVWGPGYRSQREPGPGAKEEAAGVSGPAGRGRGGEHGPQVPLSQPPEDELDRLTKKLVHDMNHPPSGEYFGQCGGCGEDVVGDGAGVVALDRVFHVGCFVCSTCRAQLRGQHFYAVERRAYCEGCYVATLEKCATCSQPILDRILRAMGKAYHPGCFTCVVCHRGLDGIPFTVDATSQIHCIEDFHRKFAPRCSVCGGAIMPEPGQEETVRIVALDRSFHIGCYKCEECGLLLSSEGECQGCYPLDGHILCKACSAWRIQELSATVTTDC
T508R: the “effect of a mutation on the interaction” value is reported as “with no effect”.

The next assay covers variants of B1. Conditions: with KRT15, P19012.
Sequence of KRT15, P19012 (P19012 whole entry): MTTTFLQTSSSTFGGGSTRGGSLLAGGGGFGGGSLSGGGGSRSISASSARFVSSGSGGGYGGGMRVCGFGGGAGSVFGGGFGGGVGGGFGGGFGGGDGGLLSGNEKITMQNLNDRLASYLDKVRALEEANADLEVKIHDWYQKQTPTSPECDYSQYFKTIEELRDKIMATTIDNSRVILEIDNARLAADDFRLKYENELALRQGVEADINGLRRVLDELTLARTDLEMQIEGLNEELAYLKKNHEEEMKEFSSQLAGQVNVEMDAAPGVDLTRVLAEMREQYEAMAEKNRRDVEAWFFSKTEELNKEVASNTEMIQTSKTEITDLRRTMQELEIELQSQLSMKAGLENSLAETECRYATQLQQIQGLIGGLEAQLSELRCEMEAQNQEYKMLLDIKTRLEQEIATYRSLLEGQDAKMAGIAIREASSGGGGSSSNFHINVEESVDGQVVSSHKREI
For the variant T508R, the “effect of a mutation on the interaction” value was “with no effect”.

The variants in another assay derive from B1. The following applies: with TCF4, P15884-3.
Sequence of TCF4, P15884-3 (P15884 other isoform, or with tags, fused parts or gaps): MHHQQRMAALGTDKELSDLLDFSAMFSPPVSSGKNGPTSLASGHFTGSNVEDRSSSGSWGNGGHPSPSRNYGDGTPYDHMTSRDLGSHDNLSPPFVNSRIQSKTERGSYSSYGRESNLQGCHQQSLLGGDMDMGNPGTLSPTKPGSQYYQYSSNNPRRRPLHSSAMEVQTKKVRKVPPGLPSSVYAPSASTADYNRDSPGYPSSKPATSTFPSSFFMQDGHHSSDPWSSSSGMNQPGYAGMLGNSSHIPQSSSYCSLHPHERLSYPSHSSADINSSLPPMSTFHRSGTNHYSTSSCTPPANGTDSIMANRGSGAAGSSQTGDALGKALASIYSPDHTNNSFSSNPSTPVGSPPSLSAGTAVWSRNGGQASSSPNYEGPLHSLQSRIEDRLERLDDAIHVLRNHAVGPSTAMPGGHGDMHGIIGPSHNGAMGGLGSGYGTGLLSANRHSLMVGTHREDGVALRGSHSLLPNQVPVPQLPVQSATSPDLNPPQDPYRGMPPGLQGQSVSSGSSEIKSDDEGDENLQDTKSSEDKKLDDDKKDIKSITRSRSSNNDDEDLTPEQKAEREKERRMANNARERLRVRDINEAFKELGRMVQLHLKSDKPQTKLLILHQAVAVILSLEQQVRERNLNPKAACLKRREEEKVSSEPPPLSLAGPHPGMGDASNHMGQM
Turning to T508R, the “effect of a mutation on the interaction” value is listed as “disrupting interaction strength”.

The variants in another assay derive from B1. The following applies: with goga2_human GOLGA2, Q08379.
Sequence of goga2_human GOLGA2, Q08379 (Q08379 whole entry): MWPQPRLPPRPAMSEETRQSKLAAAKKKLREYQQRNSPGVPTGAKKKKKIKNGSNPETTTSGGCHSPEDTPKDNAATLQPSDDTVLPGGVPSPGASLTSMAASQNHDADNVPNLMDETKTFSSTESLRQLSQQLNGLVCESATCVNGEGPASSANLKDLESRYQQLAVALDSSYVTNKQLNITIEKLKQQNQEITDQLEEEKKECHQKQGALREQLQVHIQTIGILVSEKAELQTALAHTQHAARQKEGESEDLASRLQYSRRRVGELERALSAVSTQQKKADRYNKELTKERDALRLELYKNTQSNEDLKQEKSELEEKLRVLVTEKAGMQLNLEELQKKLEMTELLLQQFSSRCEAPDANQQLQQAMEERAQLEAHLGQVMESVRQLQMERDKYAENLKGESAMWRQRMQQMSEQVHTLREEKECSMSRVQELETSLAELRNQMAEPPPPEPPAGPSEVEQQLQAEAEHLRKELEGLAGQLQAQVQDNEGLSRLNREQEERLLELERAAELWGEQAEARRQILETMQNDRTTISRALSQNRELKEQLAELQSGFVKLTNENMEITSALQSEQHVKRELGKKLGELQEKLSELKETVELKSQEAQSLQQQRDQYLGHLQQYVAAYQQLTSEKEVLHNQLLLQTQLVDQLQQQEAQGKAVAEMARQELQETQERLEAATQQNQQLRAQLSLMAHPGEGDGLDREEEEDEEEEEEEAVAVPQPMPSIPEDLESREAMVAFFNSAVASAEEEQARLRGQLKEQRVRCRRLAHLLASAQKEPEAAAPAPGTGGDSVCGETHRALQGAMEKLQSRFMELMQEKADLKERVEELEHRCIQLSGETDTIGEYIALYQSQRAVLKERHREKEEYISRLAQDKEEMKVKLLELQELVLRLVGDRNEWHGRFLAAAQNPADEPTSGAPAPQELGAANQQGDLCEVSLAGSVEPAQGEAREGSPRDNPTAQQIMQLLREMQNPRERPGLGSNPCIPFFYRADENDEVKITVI
On to T508R, for which the “effect of a mutation on the interaction” value is reported as “with no effect”.
